Measurements published in the supplement of paper PMC10724198.
± gives the standard deviation of the averaged measurements.

tested on: Saccharomyces cerevisiae; assay: protein stability index of tFT-peptide fusion (C-terminal peptide) (PSI (0-1 scale)); higher = more stable (slower turnover); conditions: genetic background: wild type; temperature: 30 C
Experimental: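 Multiplexed protein stability (MPS) profiling in S. cerevisiae. Random 12-aa peptides (tFT-X12 library) are fused to the C-terminus of a sfGFP-mCherry tandem fluorescent timer, after mCherry and a GGGS linker. Cells are FACS-sorted into 8 mCherry/sfGFP bins and deep-sequenced. The protein stability index (PSI) is the read-weighted bin average, scaled from 0 (unstable) to 1 (stable). Only peptides with >10 reads are reported; cells were grown at 30 °C in SC-His with glucose.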
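Further: PSI is a weighted mean of sequencing reads over stability bins, variants kept only with over 10 reads, mCherry proximal and sfGFP distal, peptide attached via GGGS linker.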

| Sequence | protein stability index |
| --- | --- |
| HTPTFPTSPPPP | 0.68 ± 0.016 |
| HTWAFYSETVCL | 0.694 ± 0.0092 |
| HVHSLAFPPPAT | 0.695 ± 0.068 |
| HVKVGCGNGIVR | 0.644 ± 0.014 |
| HVLRCRASLLFL | 0.6305 ± 0.0031 |
| HVPFPPTVLNSP | 0.667 ± 0.088 |
| HVTHRAVNVPLE | 0.674 ± 0.029 |
| HWCQKNKFKAIS | 0.669 ± 0.033 |
| HWSVATNMLEQH | 0.74 ± 0.054 |
| HYSLSHLRIVLD | 0.645 ± 0.011 |
| IAFLSRCWSFYL | 0.49 ± 0.014 |
| IAFSINAFCWRG | 0.552 ± 0.055 |
| IAMVTLPRLNKS | 0.7179 ± 0.0071 |
| IARKCLTGGGVS | 0.696 ± 0.065 |
| IAYGCCYKELII | 0.63 ± 0.046 |
| ICGLLFNLCKHD | 0.622 ± 0.045 |
| ICITIRQTRENK | 0.668 ± 0.027 |
| ICLMRETAGRED | 0.757 ± 0.2 |
| IDCCAGDSMAGI | 0.703 ± 0.072 |
| IDKVTNTGSRKV | 0.582 ± 0.05 |
| IDSNLCFVKSYT | 0.618 ± 0.064 |
| IEGKDSQEREGR | 0.706 ± 0.075 |
| IERRCGRCMCFM | 0.783 ± 0.1 |
| IESFFLFSFSFP | 0.762 ± 0.31 |
| IFKSGLPLRVGL | 0.657 ± 0.028 |
| IFRFHRSRNSKY | 0.722 ± 0.029 |

| Sequence | protein stability index |
| --- | --- |
| IFWGFSFRGGGC | 0.656 ± 0.029 |
| IGDRQIDFFKKD | 0.7073 ± 0.0024 |
| IGEAWERGQEAK | 0.679 ± 0.027 |
| IGITWDVFLGLG | 0.705 ± 0.03 |
| IGKLDYVCWRVL | 0.602 ± 0.029 |
| IGLPCSSGCCCH | 0.702 ± 0.088 |
| IGLVRPSGTQQT | 0.6764 ± 0.006 |
| IGLVVVRPKIMI | 0.558 ± 0.012 |
| IGNFTTEVDGWG | 0.662 ± 0.036 |
| IGRSPRVLSATP | 0.6534 ± 0.0059 |
| IGSFTRTTKKFK | 0.723 ± 0.0073 |
| IGSHDTRVVKMD | 0.731 ± 0.059 |
| IGSLASRSALLL | 0.676 ± 0.0083 |
| IGVAARPWAGAQ | 0.706 ± 0.02 |
| IGVNEDSAIVCM | 0.562 ± 0.024 |
| IGYHGRSLGWKR | 0.635 ± 0.082 |
| IHDGKKEGKSQK | 0.695 ± 0.017 |
| IHLALYKYEVMG | 0.584 ± 0.017 |
| IHQQEVKSRICT | 0.592 ± 0.031 |
| IHSPSAYLQPSF | 0.761 ± 0.029 |
| IICDIFYCSTVS | 0.644 ± 0.01 |
| IIDCQVSFSFLI | 0.588 ± 0.063 |
| IIIEYNINRKKI | 0.611 ± 0.05 |
| IIKMNERTLTKI | 0.692 ± 0.099 |
| IKGSLILRGRGE | 0.657 ± 0.025 |
| IKKEKKQKKKKG | 0.665 ± 0.098 |

| Sequence | protein stability index |
| --- | --- |
| IKKKKKEKGDST | 0.713 ± 0.082 |
| IKKKKKKGIILD | 0.71 ± 0.05 |
| IKKKKKKKKKRD | 0.652 ± 0.016 |
| IKKKKKKTPKNM | 0.714 ± 0.062 |
| IKKKQKIPKNAK | 0.678 ± 0.013 |
| IKKNHKENKRKE | 0.666 ± 0.016 |
| IKLVVLGPLVWF | 0.625 ± 0.018 |
| IKNMWLACFGLY | 0.667 ± 0.027 |
| IKNQNKKKKNKK | 0.689 ± 0.05 |
| IKPVETEKRECK | 0.668 ± 0.094 |
| IKSDCKDRRKRR | 0.7233 ± 0.0072 |
| IKTKREKNGVSS | 0.722 ± 0.016 |
| IKVIACSEPIPG | 0.592 ± 0.021 |
| ILCLAPLSCYPV | 0.832 ± 0.055 |
| ILCPGLYQFLVF | 0.529 ± 0.038 |
| ILDSPMWQPVSM | 0.727 ± 0.056 |
| ILFSSDLNSFSW | 0.744 ± 0.03 |
| ILQWEESRKGGI | 0.715 ± 0.054 |
| ILRGRDLPHGLG | 0.688 ± 0.03 |
| ILRLSLPYEGYI | 0.645 ± 0.032 |
| IMGIIKFKSYRI | 0.703 ± 0.12 |
| IMKQHNYIGFVF | 0.608 ± 0.062 |
| IMNNSKIYRSVG | 0.6593 ± 0.0021 |
| IMVLKAAVSKQE | 0.69 ± 0.09 |
| INGICDPQANSR | 0.71 ± 0.027 |
| INKATYTQIYKN | 0.667 ± 0.021 |

| Sequence | protein stability index |
| --- | --- |
| INQEKKLKNNKK | 0.70627 ± 0.0004 |
| INWIHERNDKSI | 0.734 ± 0.027 |
| IPCKVCQSLIPP | 0.611 ± 0.12 |
| IPGSPIATARPG | 0.665 ± 0.025 |
| IPPFLVSLPFLP | 0.702 ± 0.018 |
| IPSCAGLPLSLS | 0.7134 ± 0.0019 |
| IPSCSTPAPHLP | 0.677 ± 0.022 |
| IQAVSRDYVELR | 0.652 ± 0.031 |
| IQKNKQEVKTNI | 0.685 ± 0.1 |
| IRDKTSIRKLEK | 0.677 ± 0.058 |
| IRFCILRRLGRH | 0.588 ± 0.028 |
| IRKGKKIRKKEN | 0.641 ± 0.037 |
| IRLPHPPLPPSP | 0.6673 ± 0.0025 |
| IRPRRFSPGSTR | 0.7 ± 0.043 |
| IRPWPLDPPPGR | 0.78 ± 0.08 |
| IRRAGPMVAKGK | 0.649 ± 0.086 |
| ISAPLPTLLSVL | 0.559 ± 0.041 |
| ISCVSFCCLFDL | 0.601 ± 0.0022 |
| ISFGSKLPHHLP | 0.657 ± 0.11 |
| ISGDGWNFVGIV | 0.715 ± 0.097 |
| ISGRRPWGFGGE | 0.642 ± 0.041 |
| ISPQEPLVNTTN | 0.665 ± 0.018 |
| ISPSASTSRPFQ | 0.697 ± 0.11 |
| ISRLLMAMESRN | 0.653 ± 0.024 |
| ISSNMIVMAICG | 0.6 ± 0.03 |
| ISSTGYQARHRG | 0.688 ± 0.03 |

| Sequence | protein stability index |
| --- | --- |
| ISVDNTKFLFRS | 0.687 ± 0.023 |
| ISYIGCCKIVLT | 0.553 ± 0.0086 |
| ITRLSPPSSVRL | 0.7 ± 0.039 |
| ITTLGSVSRDSR | 0.722 ± 0.062 |
| IVGAGVFEERWG | 0.77 ± 0.023 |
| IVGLGLENGKEI | 0.704 ± 0.042 |
| IVLAGVCGGVVG | 0.733 ± 0.29 |
| IVLLSLSCRSPG | 0.594 ± 0.014 |
| IVQETKYFVRRS | 0.685 ± 0.082 |
| IVRTMLKLFVDV | 0.5827 ± 0.0037 |
| IVSGVSVHLGVG | 0.6115 ± 0.0029 |
| IVVRPAGGGTQS | 0.663 ± 0.019 |
| IWGKREDKNVYR | 0.71 ± 0.025 |
| IWPGASLALLTS | 0.606 ± 0.011 |
| IWRPGVAQSGLA | 0.7205 ± 0.0055 |
| IYAQFCSLYDHP | 0.702 ± 0.013 |
| IYERTEENKRVN | 0.591 ± 0.0088 |
| IYSFFHHRFVTV | 0.546 ± 0.0081 |
| KAASSLSRPAHL | 0.734 ± 0.074 |
| KAIVKKCTDSED | 0.679 ± 0.011 |
| KALNLAAAILYG | 0.638 ± 0.015 |
| KALQRKCRKRHK | 0.673 ± 0.039 |
| KCKGTCESRRGI | 0.833 ± 0.034 |
| KCPRPDATLYQS | 0.721 ± 0.042 |
| KDKKKENKNNGE | 0.6787 ± 0.0036 |
| KDKSQKKERQKT | 0.664 ± 0.029 |

| Sequence | protein stability index |
| --- | --- |
| KDQRAKRRRREE | 0.679 ± 0.08 |
| KDRRNKNKRQEY | 0.633 ± 0.012 |
| KECGICGAVVGL | 0.63 ± 0.092 |
| KEENKKKKKKRI | 0.755 ± 0.081 |
| KEGRKKKRQINT | 0.803 ± 0.076 |
| KEHKSQRSRVWR | 0.719 ± 0.011 |
| KEKKAKKSRKKR | 0.665 ± 0.084 |
| KEKKNNRQRKER | 0.642 ± 0.016 |
| KELPAGRQSEPD | 0.636 ± 0.034 |
| KERKHKRTRQQT | 0.666 ± 0.021 |
| KFNFVRMSSLRL | 0.692 ± 0.16 |
| KFRLAGSVARSG | 0.684 ± 0.013 |
| KFSVVMFLDGSW | 0.697 ± 0.084 |
| KGENKRRVRKKN | 0.574 ± 0.014 |
| KGIDTYVLQRNE | 0.715 ± 0.0095 |
| KGKRKETKKTKG | 0.667 ± 0.017 |
| KGLKQLMQIRME | 0.605 ± 0.064 |
| KGQGAYEGVGKE | 0.663 ± 0.019 |
| KGRKVVLETQLQ | 0.7 ± 0.018 |
| KGRLVGWDRNRI | 0.75 ± 0.07 |
| KGRTEKRGEKRT | 0.717 ± 0.017 |
| KHEKGEKNKIEK | 0.664 ± 0.055 |
| KHIIPSAYTPEG | 0.661 ± 0.023 |
| KHKRKGSERKQG | 0.608 ± 0.0066 |
| KHQKNRLRDLGS | 0.708 ± 0.03 |
